Results on 8 molecules are retold here after US20260167728A1 (published 2026).

The target of one test is T1, cynomolgus monkey CD3 (cynomolgus monkey, UniProt Q95LI5 22-117).
T1 construct: also called Cyno CD3
T1 sequence: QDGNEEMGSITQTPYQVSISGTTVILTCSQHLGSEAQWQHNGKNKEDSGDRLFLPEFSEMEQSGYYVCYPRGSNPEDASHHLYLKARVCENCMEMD
The test can be described thus: SPR Biacore 37 C. A general note: SPR reads the build-up and loss of mass on a sensor chip optically.

Test [1] deals with T2, human CD3 (human, UniProt P07766 23-126). Description: SPR Biacore 37 C.
T2 sequence (P07766 23-126 limits assumed): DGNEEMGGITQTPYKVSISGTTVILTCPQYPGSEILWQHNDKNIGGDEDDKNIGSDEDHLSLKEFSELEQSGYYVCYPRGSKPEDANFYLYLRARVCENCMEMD
The target in test [2] is T3, human EGFR (human, UniProt P00533 25-645, limits assumed).
T3 construct: on HT-29 cells in the cytotoxicity assay; also called epidermal growth factor receptor
The test can be described thus: SPR Biacore 37 C.

The next test deals with T4, cynomolgus monkey EGFR (cynomolgus monkey, UniProt A0A2K5WK39 25-645).
T4 construct: also called Cyno EGFR
The test can be described thus: SPR Biacore 37 C.

Test [3] deals with T3, human EGFR. Description: BLI, room temperature. As to the method:
Each construct was expressed in small-scale and purified. Thermal stability was determined by Differential Scanning Fluorimetry. Melting temperature (Tₘ) determined by Differential Scanning Fluorimetry experiments described herein were performed either in duplicate or triplicate using GloMelt™ dye and QuantStudio5™. GloMelt™ dye undergoes fluorescence enhancement upon binding to hydrophobic regions of denatured proteins. Therefore, the dye can be used to detect protein unfolding or measure thermal stability. GloMelt™ dye is optimized for detection in the SYBR® Green channel of qPCR instruments. The Differential Scanning Fluorimetry experiments were performed in 96-well plates with 10 μg protein/reaction (equal to 0.5 mg/mL final protein concentration), reaction buffer, and GloMelt™ 10× dye according to manufacturer's instructions. Fluorescence of 96-well plates was read and melt curve plots were generated in the QuantStudio5™ qPCR system. Binding affinity was analyzed with bio-layer interferometry at room temperature with human EGFR as the antigen.
(In BLI a coated tip is dipped into the sample, and binding shifts an interference pattern.)

The target of test [4] is T2, human CD3. The test can be described thus: method not stated.
Test [5] has as its target T5, huCD3e-mFc (human, UniProt P07766 23-126).
T5 construct: not shown: mFc, not described
The test can be described thus: Pool 3 screen.

Test [6] deals with T5, huCD3e-mFc. Description: Pool 3 screen, R2.
The target of test [7] is T2, human CD3. Description: Octet.
The target of test [8] is T5, huCD3e-mFc. Description: Pool 3 screen, R3.

T5 sequence (P07766 23-126): as the sequence (P07766 23-126 limits assumed) above

B1: AMX-525 (uTCE) (bispecific antibody)
chain: GTSESATPESDIQMTQSPSSLSASVGDRVTITCQASQDISNYLNWYQQKPGKAPKLLIYDASNLETGVPSRFSGSGSGTDFTFTISSLQPEDIATYYCQHFDHLPLAFGQGTKVEIKSESATPESGPGTSPGATPESGPGTSESATPQVQLQESGPGLVKPSETLSLTCTVSGGSVSSGDYYWTWIRQPPGKGLEWIGHIYYSGNTNYNPSLKSRVTISVDTSKNQFSLKLSSVTAADTAVYYCARDRVTGAFDIWGQGTLVTVSSGGGGSELVVTQEPSLTVSPGGTVTLTCRSSNGAVTSSNYANWVQQKPGQAPRGLIGGTNKRAPGTPARFSGSLLEGKAALTLSGVQPEDEAVYYCALWYPNLWVFGGGTKLTVLSESATPESGPGTSPGATPESGPGTSESATPEVQLVESGGGIVQPGGSLRLSCAASGFTFSTYAMNWVRQAPGKGLEWVGRIRTKRNDYATYYADSVKGRFTISRDDSKNTLYLQMNSLKTEDTAVYYCVRHENFGNSYVSWFAHWGQGTLVTVSSGTATPESGPG
notes: Fully unmasked metabolite; also called unmasked AMX-525; not shown: remnant of cleaved RSR-3213
Usually Kd stands for the free concentration of one partner at which half of the binding sites on the other are occupied at equilibrium, for simple one-to-one binding. As a reminder, the koff is a measure of how fast the partners let go of each other. A word on the kon: it is a measure of how fast the partners come together. Take B1: the Kd is 28 nM with cynomolgus monkey CD3, 29.2 nM with human CD3 [1], 0.034 nM with human EGFR [2] and 0.042 nM with cynomolgus monkey EGFR. The koff was found to be 0.14 s⁻¹ in the test with cynomolgus monkey CD3, 0.128 s⁻¹ in the test with human CD3 [1], 0.00023 s⁻¹ with human EGFR [2] and 0.00017 s⁻¹ with cynomolgus monkey EGFR. The kon with cynomolgus monkey CD3 was 5e+06 M⁻¹ s⁻¹; with human CD3 [1] it was 4.4e+06 M⁻¹ s⁻¹; with human EGFR [2], 6.45e+06 M⁻¹ s⁻¹; in the test with cynomolgus monkey EGFR, 4.1e+06 M⁻¹ s⁻¹.

B2: AC2909 (EGFR.61/CD3.23 paTCE) (bispecific antibody)
scFv 1: EIVLTQSPGTLSLSPGERATLSCQASQDISNYLNWYQQKPGQAPRLLIYDASNLETGIPDRFSGSGSGTDFTLTISRLEPEDFAVYYCQHFDHLPLAFGQGTKVEIKGATPPETGAETESPGETTGGSAESEPPGEGQVQLQESGPGLVKPSETLSLTCTVSGGSVSSGDYYWTWIRQPPGKGLEWIGHIYYSGNTNYNPSLKSRVTISVDTSKNQFSLKLSSVTAADTAVYYCARDRVTGAFDIWGQGTLVTVSS
scFv 2: ELVVTQEPSLTVSPGGTVTLTCRSSNGAVTSSNYANWVQQKPGQAPRGLIGGTNKRAPGTPARFSGSLLGGKAALTLSGVQPEDEAVYYCALWYPNLWVFGGGTKLTVLGATPPETGAETESPGETTGGSAESEPPGEGEVQLLESGGGIVQPGGSLKLSCAASGFTFNTYAMNWVRQAPGKGLEWVARIRSKYNNYATYYADSVKDRFTISRDDSKNTVYLQMNNLKTEDTAVYYCVRHENFGNSYVSWFAHWGQGTLVTVSS
notes: EGFR library format (remarks)
For B2, the dissociation constant Kd with human EGFR [3] was 2.4 nM; with human CD3 [4], roughly 203 nM.

B3: AC2885 (EGFR.37/CD3.23 paTCE) (bispecific antibody)
scFv 1: DIQMTQSPSSLSASVGDRVTITCQASQDISNYLNWYQQKPGKAPKLLIYDASNLETGVPSRFSGSGSGTDFTFTISSLQPEDIATYYCQHFDHLPLAFGQGTKVEIKGATPPETGAETESPGETTGGSAESEPPGEGQVQLQESGPGLVKPSETLSLTCTVSGGSVSSGDYYWTWIRQPPGKGLEWIGHIYYSGNTNYNPSLKSRVTISVDTSKNQFSLKLSSVTAADTAVYYCARDRVTGAFDIWGQGTLVTVSS
scFv 2: ELVVTQEPSLTVSPGGTVTLTCRSSNGAVTSSNYANWVQQKPGQAPRGLIGGTNKRAPGTPARFSGSLLGGKAALTLSGVQPEDEAVYYCALWYPNLWVFGGGTKLTVLGATPPETGAETESPGETTGGSAESEPPGEGEVQLLESGGGIVQPGGSLKLSCAASGFTFNTYAMNWVRQAPGKGLEWVARIRSKYNNYATYYADSVKDRFTISRDDSKNTVYLQMNNLKTEDTAVYYCVRHENFGNSYVSWFAHWGQGTLVTVSS
notes: EGFR library format (remarks)
Regarding B3, the Kd with human EGFR [3] is 2.3 nM; in the test with human CD3 [4], 203 nM; in the test with huCD3e-mFc [5], 15.4 nM.

B4: AC2921 (EGFR.73/CD3.23 paTCE) (bispecific antibody)
scFv 1: EIVLTQSPATLSLSPGERATLSCQASQDISNYLNWYQQKPGQAPRLLIYDASNLETGIPARFSGSGSGTDFTLTISSLEPEDFAVYYCQHFDHLPLAFGQGTKVEIKGATPPETGAETESPGETTGGSAESEPPGEGQVQLQESGPGLVKPSETLSLTCTVSGGSVSSGDYYWTWIRQPPGKGLEWIGHIYYSGNTNYNPSLKSRVTISVDTSKNQFSLKLSSVTAADTAVYYCARDRVTGAFDIWGQGTLVTVSS
scFv 2: ELVVTQEPSLTVSPGGTVTLTCRSSNGAVTSSNYANWVQQKPGQAPRGLIGGTNKRAPGTPARFSGSLLGGKAALTLSGVQPEDEAVYYCALWYPNLWVFGGGTKLTVLGATPPETGAETESPGETTGGSAESEPPGEGEVQLLESGGGIVQPGGSLKLSCAASGFTFNTYAMNWVRQAPGKGLEWVARIRSKYNNYATYYADSVKDRFTISRDDSKNTVYLQMNNLKTEDTAVYYCVRHENFGNSYVSWFAHWGQGTLVTVSS
notes: EGFR library format (remarks)
With B4, the results for the Kd in the test with human EGFR [3] and with human CD3 [4] were 2.45 nM and roughly 203 nM, respectively.

B5: AC2897 (EGFR.49/CD3.23 paTCE) (bispecific antibody)
scFv 1: DIQMTQSPSSLSASVGDRVTITCQASQDISNYLNWYQQKPGKAPKLLIYDASNLETGVPSRFSGSGSGTDFTLTISSLQPEDFATYYCQHFDHLPLAFGQGTKVEIKGATPPETGAETESPGETTGGSAESEPPGEGQVQLQESGPGLVKPSETLSLTCTVSGGSVSSGDYYWTWIRQPPGKGLEWIGHIYYSGNTNYNPSLKSRVTISVDTSKNQFSLKLSSVTAADTAVYYCARDRVTGAFDIWGQGTLVTVSS
scFv 2: ELVVTQEPSLTVSPGGTVTLTCRSSNGAVTSSNYANWVQQKPGQAPRGLIGGTNKRAPGTPARFSGSLLGGKAALTLSGVQPEDEAVYYCALWYPNLWVFGGGTKLTVLGATPPETGAETESPGETTGGSAESEPPGEGEVQLLESGGGIVQPGGSLKLSCAASGFTFNTYAMNWVRQAPGKGLEWVARIRSKYNNYATYYADSVKDRFTISRDDSKNTVYLQMNNLKTEDTAVYYCVRHENFGNSYVSWFAHWGQGTLVTVSS
notes: EGFR library format (remarks)
Consider B5, for which the results for the Kd in the test with human EGFR [3] and with human CD3 [4] were 7.2 nM and roughly 203 nM, respectively.

B6: AC3768 (CD3.23 control) (scFv, V domains shown)
VH: EVQLLESGGGIVQPGGSLKLSCAASGFTFNTYAMNWVRQAPGKGLEWVARIRSKYNNYATYYADSVKDRFTISRDDSKNTVYLQMNNLKTEDTAVYYCVRHENFGNSYVSWFAHWGQGTLVTVSS
VL: ELVVTQEPSLTVSPGGTVTLTCRSSNGAVTSSNYANWVQQKPGQAPRGLIGGTNKRAPGTPARFSGSLLGGKAALTLSGVQPEDEAVYYCALWYPNLWVFGGGTKLTVL
notes: Pool 3 format (remarks)
Take B6: the Kd with huCD3e-mFc [6] is 8 nM; with human CD3 [7], 4.67 nM; with huCD3e-mFc [5], 4.67 nM; with huCD3e-mFc [8], 5.6 nM.

B7: AC3822 (CD3.318) (scFv, V domains shown)
VH: EVQLVESGGGIVQPGGSLRLSCAASGFTFSTYAMNWVRQAPGKGLEWVGRIRTKRNDYATYYADSVKGRFTISRDDSKNTLYLQMNSLKTEDTAVYYCVRHENFGNSYVSWFAHWGQGTLVTVSS
VL: ELVVTQEPSLTVSPGGTVTLTCRSSNGAVTSSNYANWVQQKPGQAPRGLIGGTNKRAPGTPARFSGSLLEGKAALTLSGVQPEDEAVYYCALWYPNLWVFGGGTKLTVL
notes: Pool 3 format (remarks)
With B7, the equilibrium dissociation constant (Kd) with huCD3e-mFc [6] stood at 5.7 nM; with human CD3 [7], 5.38 nM; in the test with huCD3e-mFc [5], 5.38 nM.

B8: AC3799 (CD3.295) (scFv, V domains shown)
VH: EVQLVESGGGIVQPGGSLRLSCAASGFTFSTYAMNWVRQAPGKGLEWVGRIRTKRNNYATYYADSVKGRFTISRDDSKNTVYLQMNSLKTEDTAVYYCVRHENFGNSYVSWFAHWGQGTLVTVSS
VL: ELVVTQEPSLTVSPGGTVTLTCRSSNGAVTSSNYANWVQQKPGQAPRGLIGGTNKRAPGTPARFSGSLNGGKAALTLSGVQPEDEAVYYCALWYPNLWVFGGGTKLTVL
notes: Pool 3 format (remarks)
Consider B8, for which the figures for the Kd with huCD3e-mFc [6], with human CD3 [7] and with huCD3e-mFc [5] were 3.7 nM, 3.11 nM and 3.11 nM, respectively.
